The record followed here is PMC3834829, “A signature motif mediating selective interactions of BCL11A with the NR2E/F subfamily of orphan nuclear receptors” (Nucleic Acids Research, 2013).

B1: AAD-COUP-TFII-LBD-(144–414) [not stated] / LexA-BCL11A-(651–670) [not stated] (parent complex)
chain 1: MRREAVQRGRMPPTQPTHGQFALTNGDPLNCHSYLSGYISLLLRAEPYPTSRFGSQCMQPNNIMGIENICELAARMLFSAVEWARNIPFFPDLQITDQVALLRLTWSELFVLNAAQCSMPLHVAPLLAAAGLHASPMSADRVVAFMDHIRIFQEQVEKLKALHVDSAEYSCLKAIVLFTSDACGLSDVAHVESLQEKSQCALEEYVRSQYPNQPTRFGKLLLRLPSLRTVSSSVIEQLFFVRLVGKTPIETLIRDMLLSGSSFNWPYMAIQ
chain 2: NTENVYSQWLAGYAASRQLK
B2: LexA-NSD1-(790–818) [not stated] / AAD-ERα-LBD-(282–595) [not stated] (parent complex)
chain 1: SSQNHIPIEPDYKFSTLLMMLKDMHDSKT
chain 2: SAGDMRAANLWPSPLMIKRSKKNSLALSLTADQMVSALLDAEPPILYSEYDPTRPFSEASMMGLLTNLADRELVHMINWAKRVPGFVDLTLHDQVHLLECAWLEILMIGLVWRSMEHPGKLLFAPNLLLDRNQGKCVEGMVEIFDMLLATSSRFRMMNLQGEEFVCLKSIILLNSGVYTFLSSTLKSLEEKDHIHRVLDKITDTLIHLMAKAGLTLQQQHQRLAQLLLILSHIRHMSNKGMEHLYSMKCKNVVPLYDLLLEMLDAHRLHAPTSRGGASVEETDQSHLATAGSTSSHSLQKYYITGEAEGFPATV
B3: LexA-BCL11A-(310–325) [not stated] / AAD-PNR-LBD-(131–410) [not stated] (parent complex)
chain 1: PPAMDFSRRLRELAGN
chain 2: HLDSMESNTESRPESLVAPPAPAGRSPRGPTPMSAARALGHHFMASLITAETCAKLEPEDADENIDVTSNDPEFPSSPYSSSSPCGLDSIHETSARLLFMAVKWAKNLPVFSSLPFRDQVILLEEAWSELFLLGAIQWSLPLDSCPLLAPPEASAAGGAQGRLTLASMETRVLQETISRFRALAVDPTEFACMKALVLFKPETRGLKDPEHVEALQDQSQVMLSQHSKAHHPSQPVRFGKLLLLLPSLRFITAERIELLFFRKTIGNTPMEKLLCDMFKN
B4: LexA-BCL11A-(310–325) [not stated] / AAD-EAR2-LBD-(121–399) [not stated] (parent complex)
chain 1: PPAMDFSRRLRELAGN
chain 2: MRKEAVQRGRIPHSLPGAVAASSGSPPGSALAAVASGGDLFPGQPVSELIAQLLRAEPYPAAAGRFGAGGGAAGAVLGIDNVCELAARLLFSTVEWARHAPFFPELPVADQVALLRLSWSELFVLNAAQAALPLHTAPLLAAAGLHAAPMAAERAVAFMDQVRAFQEQVDKLGRLQVDSAEYGCLKAIALFTPDACGLSDPAHVESLQEKAQVALTEYVRAQYPSQPQRFGRLLLRLPALRAVPASLISQLFFMRLVGKTPIETLIRDMLLSGSTFNWP
B5: LexA-BCL11A-(310–325) [not stated] / AAD-COUP-TFI-LBD-(151–467) [not stated] (parent complex)
chain 1: PPAMDFSRRLRELAGN
chain 2: MRREAVQRGRMPPTQPNPGQYALTNGDPLNGHCYLSGYISLLLRAEPYPTSRYGSQCMQPNNIMGIENICELAARLLFSAVEWARNIPFFPDLQITDQVSLLRLTWSELFVLNAAQCSMPLHVAPLLAAAGLHASPMSADRVVAFMDHIRIFQEQVEKLKALHVDSAEYSCLKAIVLFTSDACGLSDAAHIESLQEKSQCALEEYVRSQYPNQPSRFGKLLLRLPSLRTVSSSVIEQLFFVRLVGKTPIETLIRDMLLSGSSFNWPYMSIQCS

The first test covers variants of B1. Description: yeast two-hybrid; read off a plot.
chain 1 MRREAVQRGRMPPTQPTHGQFALTNGDPLNCHSYLSGYISLLLRAEPYPTSRFGSQCMQPNNIMGIENICELAARMLFSAAEWARNIPFFPDLQITDQVALLRLTWSELFVLNAAQCSMPLHVAPLLAAAGLHASPMSADRVVAFMDHIRIFQEQVEKLKALHVDSAEYSCLKAIVLFTSDACGLSDVAHVESLQEKSQCALEEYVRSQYPNQPTRFGKLLLRLPSLRTVSSSVIEQLFFVRLVGKTPIETLIRDMLLSGSSFNWPYMAIQ [chain 1 V81A]: the response was approximately 20 nmol/mg/min.
On the same count and under the same terms, then chain 1 MRREAVQRGRMPPTQPTHGQFALTNGDPLNCHSYLSGYISLLLRAEPYPTSRFGSQCMQPNNIMGIENICELAARMLFSAVEWARNIPFFPDLQITDQAALLRLTWSELFVLNAAQCSMPLHVAPLLAAAGLHASPMSADRVVAFMDHIRIFQEQVEKLKALHVDSAEYSCLKAIVLFTSDACGLSDVAHVESLQEKSQCALEEYVRSQYPNQPTRFGKLLLRLPSLRTVSSSVIEQLFFVRLVGKTPIETLIRDMLLSGSSFNWPYMAIQ [chain 1 V99A], with approximately 2700 nmol/mg/min.

The next test covers variants of B2. Description: yeast two-hybrid; + 1µM E2; read off a plot.
With chain 1 SSQNHIPIEPDYKFSTLLAMLKDMHDSKT [chain 1 M19A], the response was approximately 2700 nmol/mg/min.
With chain 1 SSQNHIPIEPDYKFSTLLMALKDMHDSKT [chain 1 M20A], the response is approximately 0 nmol/mg/min.
The same measure, in the same setting: the figure for chain 1 SSQNHIPIEPDYKFSTLLMMAKDMHDSKT [chain 1 L21A] is approximately 0 nmol/mg/min; for chain 1 SSQNHIPIEPDYKFSTLLMMLADMHDSKT [chain 1 K22A] it is approximately 2500 nmol/mg/min; for chain 1 SSQNHIPIEPDYKFSTALMMLKDMHDSKT [chain 1 L17A] it is approximately 0 nmol/mg/min.
With chain 1 SSQNHIPIEPDYKFSTLLMMLKAMHDSKT [chain 1 D23A], the response was approximately 1700 nmol/mg/min.
chain 1 SSQNHIPIEPDYKASTLLMMLKDMHDSKT [chain 1 F14A]: the response is approximately 2400 nmol/mg/min.
Regarding chain 1 SSQNHIPIEPDYKFSTLAMMLKDMHDSKT [chain 1 L18A], the response was approximately 1800 nmol/mg/min.

The variants in the next test derive from B3. In words: yeast two-hybrid; read off a plot.
As for chain 1 R11A, the response is approximately 0 nmol/mg/min.
On the same count and under the same terms, the figure for chain 1 R8A is approximately 0 nmol/mg/min; for chain 1 L10A it is approximately 0 nmol/mg/min; for chain 1 F6A it is approximately 0 nmol/mg/min.
Still for that read-out and setting: the figure for chain 1 L13A is approximately 0 nmol/mg/min; for chain 1 S7A it is approximately 2500 nmol/mg/min.

Variants of B4 are the subject of the next test. Description: yeast two-hybrid; read off a plot.
Turning to chain 1 PPAMDFSRRARELAGN [chain 1 L10A], the response was approximately 0 nmol/mg/min.
The same measure, in the same setting: then chain 1 PPAMDFSARLRELAGN [chain 1 R8A], with approximately 1000 nmol/mg/min; and chain 1 PPAMDFSRRLAELAGN [chain 1 R11A], with approximately 1300 nmol/mg/min; and chain 1 PPAMDFSRRLREAAGN [chain 1 L13A], with approximately 0 nmol/mg/min.
On the same count and under the same terms, then chain 1 PPAMDFARRLRELAGN [chain 1 S7A], with approximately 160 nmol/mg/min.

The variants in the next test derive from B5. In words: yeast two-hybrid; read off a plot.
Take chain 1 PPAMDFSRRARELAGN [chain 1 L10A]: the response is approximately 0 nmol/mg/min.
Same read-out and setting: the figure for chain 1 PPAMDASRRLRELAGN [chain 1 F6A] is approximately 0 nmol/mg/min; for chain 1 PPAMDFSRRLREAAGN [chain 1 L13A] it is approximately 0 nmol/mg/min.
With chain 1 PPAMDFARRLRELAGN [chain 1 S7A], the response is approximately 100 nmol/mg/min.
On the same count and under the same terms, then chain 1 PPAMDFSRRLAELAGN [chain 1 R11A], with approximately 670 nmol/mg/min.
Same read-out and setting: the figure for chain 1 PPAMDFSARLRELAGN [chain 1 R8A] is approximately 900 nmol/mg/min.
